Data reported in paper PMC8420271 (The EMBO Journal, 2021).

B1: GST-GSDMD (full-length human GSDMD) (natural protein)
chain: MGSAFERVVRRVVQELDHGGEFIPVTSLQSSTGFQPYCLVVRKPSSSWFWKPRYKCVNLSIKDILEPDAAEPDVQRGRSFHFYDAMDGQIQGSVELAAPGQAKIAGGAAVSDSSSTSMNVYSLSVDPNTWQTLLHERHLRQPEHKVLQQLRSRGDNVYVVTEVLQTQKEVEVTRTHKREGSGRFSLPGATCLQGEGQGHLSQKKTVTIPSGSTLAFRVAQLVIDSDLDVLLFPDKKQRTFQPPATGHKRSTSEGAWPQLPSGLSMMRCLHNFLTDGVPAEGAFTEDFQGLRAEVETISKELELLDRELCQLLLEGLEGVLRDQLALRALEEALEQGQSLGPVEPLDGPAGAVLECLVLSSGMLVPELAIPVVYLLGALTMLSETQHKLLAEALESQTLLGPLELVGSLLEQSAPWQERSTMSLPPGLLGNSWGEGAPAWVLLDECGLELGEDTPHVCWEPQAQGRMCALYASLALLSGLSQEPH

Target: Myc-tagged SARS-CoV-2 nucleocapsid (SARS-CoV-2, UniProt P0DTC9 1-419)
Assay: co-IP

Binder | binding result
FLAG-tagged full-length GSDMD (natural protein) MGSAFERVVRRVVQELDHGGEFIPVTSLQSSTGFQPYCLVVRKPSSSWFWKPRYKCVNLSIKDILEPDAAEPDVQRGRSFHFYDAMDGQIQGSVELAAPGQAKIAGGAAVSDSSSTSMNVYSLSVDPNTWQTLLHERHLRQPEHKVLQQLRSRGDNVYVVTEVLQTQKEVEVTRTHKREGSGRFSLPGATCLQGEGQGHLSQKKTVTIPSGSTLAFRVAQLVIDSDLDVLLFPDKKQRTFQPPATGHKRSTSEGAWPQLPSGLSMMRCLHNFLTDGVPAEGAFTEDFQGLRAEVETISKELELLDRELCQLLLEGLEGVLRDQLALRALEEALEQGQSLGPVEPLDGPAGAVLECLVLSSGMLVPELAIPVVYLLGALTMLSETQHKLLAEALESQTLLGPLELVGSLLEQSAPWQERSTMSLPPGLLGNSWGEGAPAWVLLDECGLELGEDTPHVCWEPQAQGRMCALYASLALLSGLSQEPH | binds

Target: B1
Assay: pull-down

Binder | binding result
caspase-1 p20 (C285A)-His / p10-His complex (complex) chain 1: NPAMPTSSGSEGNVKLCSLEEAQRIWKQKSAEIYPIMDKSSRTRLALIICNEEFDSIPRRTGAEVDITGMTMLLQNLGYSVDVKKNLTASDMTTELEAFAHRPEHKTSDSTFLVFMSHGIREGICGKKHSEQVPDILQLNAIFNMLNTKNCPSLKDKPKVIIIQAARGDSPGVVWFKD chain 2: AIKKAHIEKDFIAFCSSTPDNVSWRHPTMGSVFIGRLIEHMQEYACSCDVEEIFRKVRFSFEQPDGRAQMPTTERVTLTRCFYLFPGH | binds

Target: His-tagged SARS-CoV-2 nucleocapsid (SARS-CoV-2, UniProt P0DTC9 1-419)
Assay: pull-down

Binder | binding result
GST-GSDMD truncation lacking aa 302-310 (natural protein) MGSAFERVVRRVVQELDHGGEFIPVTSLQSSTGFQPYCLVVRKPSSSWFWKPRYKCVNLSIKDILEPDAAEPDVQRGRSFHFYDAMDGQIQGSVELAAPGQAKIAGGAAVSDSSSTSMNVYSLSVDPNTWQTLLHERHLRQPEHKVLQQLRSRGDNVYVVTEVLQTQKEVEVTRTHKREGSGRFSLPGATCLQGEGQGHLSQKKTVTIPSGSTLAFRVAQLVIDSDLDVLLFPDKKQRTFQPPATGHKRSTSEGAWPQLPSGLSMMRCLHNFLTDGVPAEGAFTEDFQGLRAEVETISKELLLLEGLEGVLRDQLALRALEEALEQGQSLGPVEPLDGPAGAVLECLVLSSGMLVPELAIPVVYLLGALTMLSETQHKLLAEALESQTLLGPLELVGSLLEQSAPWQERSTMSLPPGLLGNSWGEGAPAWVLLDECGLELGEDTPHVCWEPQAQGRMCALYASLALLSGLSQEPH | binds
B1 | binds
GST-GSDMD truncation lacking both aa 302-310 and aa 350-368 (natural protein) MGSAFERVVRRVVQELDHGGEFIPVTSLQSSTGFQPYCLVVRKPSSSWFWKPRYKCVNLSIKDILEPDAAEPDVQRGRSFHFYDAMDGQIQGSVELAAPGQAKIAGGAAVSDSSSTSMNVYSLSVDPNTWQTLLHERHLRQPEHKVLQQLRSRGDNVYVVTEVLQTQKEVEVTRTHKREGSGRFSLPGATCLQGEGQGHLSQKKTVTIPSGSTLAFRVAQLVIDSDLDVLLFPDKKQRTFQPPATGHKRSTSEGAWPQLPSGLSMMRCLHNFLTDGVPAEGAFTEDFQGLRAEVETISKELLLLEGLEGVLRDQLALRALEEALEQGQSLGPVEPLDGPAIPVVYLLGALTMLSETQHKLLAEALESQTLLGPLELVGSLLEQSAPWQERSTMSLPPGLLGNSWGEGAPAWVLLDECGLELGEDTPHVCWEPQAQGRMCALYASLALLSGLSQEPH | binds
PSGLSMMRCLHNFLTDGVPAEGAFTEDFQGL (domain or fragment) [GST-tagged GSDMD linker containing amino acids 260-290] | binds
MMRCLHNFLTDGVPAEGAFT (domain or fragment) [GST-tagged GSDMD linker containing amino acids 265-284] | binds
HNFLTDGVPAE (domain or fragment) [GST-tagged GSDMD linker containing amino acids 270-280] | binds
GST-GSDMD truncation lacking aa 350-368 (natural protein) MGSAFERVVRRVVQELDHGGEFIPVTSLQSSTGFQPYCLVVRKPSSSWFWKPRYKCVNLSIKDILEPDAAEPDVQRGRSFHFYDAMDGQIQGSVELAAPGQAKIAGGAAVSDSSSTSMNVYSLSVDPNTWQTLLHERHLRQPEHKVLQQLRSRGDNVYVVTEVLQTQKEVEVTRTHKREGSGRFSLPGATCLQGEGQGHLSQKKTVTIPSGSTLAFRVAQLVIDSDLDVLLFPDKKQRTFQPPATGHKRSTSEGAWPQLPSGLSMMRCLHNFLTDGVPAEGAFTEDFQGLRAEVETISKELELLDRELCQLLLEGLEGVLRDQLALRALEEALEQGQSLGPVEPLDGPAIPVVYLLGALTMLSETQHKLLAEALESQTLLGPLELVGSLLEQSAPWQERSTMSLPPGLLGNSWGEGAPAWVLLDECGLELGEDTPHVCWEPQAQGRMCALYASLALLSGLSQEPH | binds
